From patent US20190224333A1 (published 2019)

Target: T1, fibrin (human, UniProt P02671 36-629; P02675 45-491; P02679 27-437, limits assumed)
T1 construct: Thin polymerised fibrin layer made by layer-by-layer deposition of fibrinogen-thrombin-fibrinogen on ELISA plates, SPR chips and interferometry sensors; Human is stated for the purified fibrinogen used in biopanning; also called fibrin layer; fibrin clot
T1 sequence (looked up) 1: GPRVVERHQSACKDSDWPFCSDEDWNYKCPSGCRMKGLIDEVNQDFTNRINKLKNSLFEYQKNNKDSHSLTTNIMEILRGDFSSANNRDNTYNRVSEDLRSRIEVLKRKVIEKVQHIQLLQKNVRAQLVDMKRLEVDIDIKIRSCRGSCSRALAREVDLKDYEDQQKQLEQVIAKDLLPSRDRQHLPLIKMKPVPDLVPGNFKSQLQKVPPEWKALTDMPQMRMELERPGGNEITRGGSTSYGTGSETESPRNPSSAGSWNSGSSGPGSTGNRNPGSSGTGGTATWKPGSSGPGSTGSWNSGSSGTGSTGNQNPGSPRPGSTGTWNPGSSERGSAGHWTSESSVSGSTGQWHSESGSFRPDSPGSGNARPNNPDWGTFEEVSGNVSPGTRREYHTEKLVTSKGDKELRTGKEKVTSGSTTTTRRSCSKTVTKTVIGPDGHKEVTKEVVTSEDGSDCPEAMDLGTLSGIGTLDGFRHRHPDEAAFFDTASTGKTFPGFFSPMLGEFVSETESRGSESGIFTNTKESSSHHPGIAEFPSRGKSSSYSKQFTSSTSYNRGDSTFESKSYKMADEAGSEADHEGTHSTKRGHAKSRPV
T1 sequence (looked up) 2: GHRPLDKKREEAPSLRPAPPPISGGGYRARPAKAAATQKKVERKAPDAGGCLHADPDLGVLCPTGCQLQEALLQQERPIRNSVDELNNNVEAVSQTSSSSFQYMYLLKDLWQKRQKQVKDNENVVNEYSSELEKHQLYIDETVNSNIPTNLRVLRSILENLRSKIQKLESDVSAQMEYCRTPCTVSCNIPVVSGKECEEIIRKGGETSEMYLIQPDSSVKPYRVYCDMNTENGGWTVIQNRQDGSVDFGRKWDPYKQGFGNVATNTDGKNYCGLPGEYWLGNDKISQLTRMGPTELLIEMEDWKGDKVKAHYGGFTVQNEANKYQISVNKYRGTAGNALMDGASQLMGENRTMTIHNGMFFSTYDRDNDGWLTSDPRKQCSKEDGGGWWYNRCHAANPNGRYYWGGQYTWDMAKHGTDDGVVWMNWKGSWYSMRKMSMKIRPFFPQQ
T1 sequence (looked up) 3: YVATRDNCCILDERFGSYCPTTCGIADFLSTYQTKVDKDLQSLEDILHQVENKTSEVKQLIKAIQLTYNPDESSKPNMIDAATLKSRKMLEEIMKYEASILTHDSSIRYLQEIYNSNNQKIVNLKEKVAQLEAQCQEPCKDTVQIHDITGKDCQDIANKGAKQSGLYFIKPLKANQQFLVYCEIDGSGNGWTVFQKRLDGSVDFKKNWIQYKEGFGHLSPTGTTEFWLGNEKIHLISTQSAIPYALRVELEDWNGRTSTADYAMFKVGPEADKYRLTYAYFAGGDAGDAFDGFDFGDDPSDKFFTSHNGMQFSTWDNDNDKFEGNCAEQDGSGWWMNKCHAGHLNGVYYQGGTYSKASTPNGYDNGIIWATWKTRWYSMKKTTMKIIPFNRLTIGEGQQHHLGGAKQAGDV
Test: SPR, sdFv flowed over immobilised fibrin layer, 1:1 Langmuir fit
Description: Based on previous SPR protocols developed in the lab⁴, a thin fibrin layer was immobilized on the surface of a gold SPR chip via layer-by-layer deposition of fibrinogen-thrombin-fibrinogen³. SdFvs were flowed across the fibrin surface and the binding interactions were evaluated and recorded. Additionally, antibody fragment binding interactions with a surface of immobilized fibrinogen was used to investigate the specificity to fibrin. All SPR data was examined and analyzed with Scrubber 2 and Clamp XP (Center for Biomolecular Interactions Analysis, University of Utah). Data simulation curves were generated based on a Langmuir 1:1 binding model assuming only a single ligand-analyte interaction.
The four most promising clones, based on their selectivity for fibrin over fibrinogen (clones A2, A6, B3 and H6) and a random clone (S11) were then evaluated through SPR analysis (FIGS. 2B-2K). […] Clones H6 and S11 (negative control) were subsequently utilized for creation of PLPs. Interferometry analysis verified that sdFv-microgels maintained their fibrin-binding capabilities (FIG. 3).

B1: H6 (VHH)
VHH: QVQLLESGGGLVQPGGSLRLSCAASGDRFTHNDMGWVRQAPGKGLEWVSTIPTTDGSTYYADSVKGRFTISRDNSKSTLYLQMNSLRAEDTAVYYCATGYMWKAPAYVKYWGQGTLVTVSS
notes: Human-derived single domain variable fragment (sdFv, VH only) from a phagemid library; Made as soluble sdFv in E. coli HB2151 and purified on protein A; also called clone H6; fibrin-specific sdFv
- Kd: 0.199 µM
